Test results: US20260139026A1 (published 2026)

Legend:
[1] = target: T1, PIK3CA H1047L peptide on HLA-A*03:01 (human); assay: multimer staining
T1 peptide: ALHGGWTTK

[2] = target: T2, PIK3CA H1047L (10-mer) peptide on HLA-A*03:01 (human); assay: cytokine release
T2 peptide: DALHGGWTTK

[3] = target: T3, PIK3CA H1047L (8-mer) peptide on HLA-A*03:01 (human); assay: cytokine release
T3 peptide: LHGGWTTK

Measured: binding result

B1: 1022T8 (TCR, V domains shown)
Valpha: GDSVTQMEGPVTLSEEAFLTINCTYTATGYPSLFWYVQYPGEGLQLLLKATKADDKGSNKGFEATYRKETTSFHLEKGSVQVSDSAVYFCALTVGGSYIPTFGRGTSLIVHP
Vbeta: DTEVTQTPKHLVMGMTNKKSLKCEQHMGHRAMYWYKQKAKKPPELMFVYSYEKLSINESVPSRFSPECPNSSLLNLHLHALQPEDSALYLCASSQGGQGWRETQYFGPGTRLLVL
recognises: [1] | [2] | [3]
